Measured values as given in patent US7910550B2, “Human kunitz-type inhibitor with enhanced antifibrinolytic activity” (STC.UNM, priority 2004, dated 2011).

Tests used:
[1] = tested on: human umbilical vein endothelial cells (HUVECs); test: In vitro human endothelial cell angiogenesis assay (capillary tube formation on ECMATRIX); assay type: cell-based; details: for inhibition of angiogenesis (capillary-like tube formation): HUVECs on matrix
From the text: The angiogenesis assay is commercially available from Chemicon International, Inc. (Temecula, Calif.), and involves growing human umbilical vein endothelial cells (HUVECs) on a proprietary matrix, followed by assessing angiogenesis on this matrix by counting new branch points in sprouting endothelial cells.
A semi-quantitative assay for in vitro angiogenesis was utilized. Human umbilical vein endothelial cells (HUVEC, Clonetics Corp., Walkersville, Md.) were maintained in 25 cm^2 flasks in EGM-2 media (Clonetics Corp.) supplemented with 2% fetal bovine serum, gentamicin, amphotericin-B, hEGF, hydrocortisone, VEGF, hFGF-B, R^3-IGF-1, ascorbic acid and heparin. For assay, a 48-well tissue culture plate was coated with 100 μl of ECMATRIX (Chemicon International, Inc., Temecula, Calif.) followed by incubation at 37° C. for one hour. Approximately 5×10^4 cells were then seeded onto the surface of the polymerized matrix. Varying concentrations of full-length human TFPI-2, diluted in EGM-2 media and filtered, were added to the wells and plate was placed in 37° C.-humidified CO2 incubator. Each treatment was performed in duplicate wells. Separately, VEGF was used as a positive control. The three-dimensional organization of cells was examined every hour under an inverted photomicroscope. The capillary tube branch point formation was counted in each well following eight hours of incubation. For each concentration, eight randomly chosen areas under 250× magnified field were observed. The results are expressed as number of branching points (mean±SEM) and the differences between each mean value was tested by one way analysis of variance (ANOVA). Statistically p-value <0.05 was accepted.
To examine the effect of full-length human TFPI-2 on morphogenesis (capillary-like tube formation) of endothelial cells, HUVECs were seeded on the matrigel and treated with full-length human TFPI-2 (0.2 μM-5 μM).

[2] = tested on: VEGF-induced angiogenesis; test: VEGF-induced chorioallantoic membrane assay; assay type: in vivo; details: preliminary studies
HT-1080 cells = test: Gene expression by Oligo GEARRAY Human Apoptosis Microarray; assay type: cell-based
Experimental: To study the gene expression profiles of proteins involved in apoptosis, approximately 2×10^7 cells were grown to confluence and treated with either recombinant R24K KD1 or vehicle for 24 hours and 48 hours. After the treatment, the cells were harvested and total RNA was purified using the RNEASY RNA extraction kit according to the manufacturer's instruction. The purified RNA samples were further digested using an on-column DNase digestion with RNase-free DNase-I to ensure complete removal of any contaminating genomic or mitochondrial DNA. The pathway-specific microarray was carried out using 3 μg of total RNA to generate biotin-labeled cRNA using TRUELABELING-AMP from SABiosciences Corp. (Frederick, Md.). TRUELABELING-AMP 2.0 from (SABiosciences Corp., Frederick, Md.) was used to rapidly amplify and label antisense RNA for hybridization. Three micrograms of labeled cRNA was used for hybridization with an Oligo GEARRAY Human Apoptosis Microarray consisting of 112 genes. Following incubation with CDP-STAR, the chemiluminescent array image was captured by a cooled CCD camera (Alpha Innotech Corp., San Leandro, Calif.). All images were saved as electronic files in a grayscale, 8 or 16 bit TIFF file format and analyzed using a GEARRAY Expression Analysis Suite. Data were normalized using minimum value background subtraction and interquartile normalization. Minimum value is the lowest density spot on the array and the average across the spot was used as the background correction value and is subtracted from the intensity value for each spot on the array. Interquartile uses only genes between the 25% and 75% quartile and the average intensity value of these spots is used for normalization of all the genes (intensity value of each gene is divided by this mean intensity value). The pUC19 plasmid was used as the negative control in the array.

B1: TFPI-2: Human tissue factor pathway inhibitor-2, 213 amino acid polypeptide with three tandem Kunitz-type domains (SEQ ID NO:1) (protein, listed as Homo sapiens)
chain: DAAQEPTGNNAEICLLPLDYGPCRALLLRYYYDRYTQSCRQFLYGGCEGNANNFYTWEACDDACWRIEKVPKVCRLQVSVDDQCEGSTEKYFFNLSSMTCEKFFSGGCHRNRIENRFPDEATCMGFCAPKKIPSFCYSPKDEGLCSANVTRYYFNPRYRTCDAFTYTGCGGNDNNFVSREDCKRACAKALKKKKKMPKLRFASRIRKIRKKQF
capillary-like tube formation ([1]; 5 μM, overnight incubation): no complete tube formation even after overnight incubation
inhibition of angiogenesis (capillary-like tube formation) [1]: significantly inhibited the capillary-like tube formation of HUVECs in a dose-dependent manner
inhibition of angiogenesis (capillary-like tube formation) ([1]; listed as wild-type TFPI-2): inhibit angiogenesis
anti-angiogenic effect [2]: potent and dose-dependent anti-angiogenic effect

B2: R24K KD1: KD1 with lysine in place of arginine at position 24 (SEQ ID NO:3) (protein)
chain: DAAQEPTGNNAEICLLPLDYGPCKALLLRYYYDRYTQSCRQFLYGGCEGNANNFYTWEACDDACWRIEKVPKV
modifications: mutated active domain
Fold change BAG3, Group 2 vs. Group 1 (HT-1080 cells; Group 2 vs. Group 1): 0.60 fold
Fold change BAK1, Group 2 vs. Group 1 (HT-1080 cells; Group 2 vs. Group 1): 1.78 fold
Fold change BAX, Group 2 vs. Group 1 (HT-1080 cells; Group 2 vs. Group 1): 3.09 fold
Fold change BCL2, Group 2 vs. Group 1 (HT-1080 cells; Group 2 vs. Group 1): 0.65 fold
Fold change BCL2A1, Group 2 vs. Group 1 (HT-1080 cells; Group 2 vs. Group 1): 2.02 fold
Fold change BCLAF1, Group 2 vs. Group 1 (HT-1080 cells; Group 2 vs. Group 1): 0.74 fold
Fold change BFAR, Group 2 vs. Group 1 (HT-1080 cells; Group 2 vs. Group 1): 0.34 fold
Fold change BNIP3, Group 2 vs. Group 1 (HT-1080 cells; Group 2 vs. Group 1): 1.71 fold
Fold change CARD6, Group 2 vs. Group 1 (HT-1080 cells; Group 2 vs. Group 1): 2.31 fold
Fold change CARD11, Group 2 vs. Group 1 (HT-1080 cells; Group 2 vs. Group 1): 1.54 fold
Fold change CASP4, Group 2 vs. Group 1 (HT-1080 cells; Group 2 vs. Group 1): 1.18 fold
Fold change CASP9, Group 2 vs. Group 1 (HT-1080 cells; Group 2 vs. Group 1): 1.50 fold
Fold change CD40, Group 2 vs. Group 1 (HT-1080 cells; Group 2 vs. Group 1): 4.74 fold
Fold change CIDEB, Group 2 vs. Group 1 (HT-1080 cells; Group 2 vs. Group 1): 2.25 fold
Fold change GADD45A, Group 2 vs. Group 1 (HT-1080 cells; Group 2 vs. Group 1): 1.88 fold
Fold change LTA, Group 2 vs. Group 1 (HT-1080 cells; Group 2 vs. Group 1): 75.31 fold
Fold change LTBR, Group 2 vs. Group 1 (HT-1080 cells; Group 2 vs. Group 1): 1.38 fold
Fold change MCL1, Group 2 vs. Group 1 (HT-1080 cells; Group 2 vs. Group 1): 1.46 fold
Fold change TNFRSF1B, Group 2 vs. Group 1 (HT-1080 cells; Group 2 vs. Group 1): 1.59 fold
Fold change TNFRSF10B, Group 2 vs. Group 1 (HT-1080 cells; Group 2 vs. Group 1): 1.68 fold
Fold change TNFRSF25, Group 2 vs. Group 1 (HT-1080 cells; Group 2 vs. Group 1): 1.27 fold
Fold change TRADD, Group 2 vs. Group 1 (HT-1080 cells; Group 2 vs. Group 1): 1.92 fold
Fold change TRAF4, Group 2 vs. Group 1 (HT-1080 cells; Group 2 vs. Group 1): 3.79 fold
Fold change BAG3, Group 3 vs. Group 1 (HT-1080 cells; Group 3 vs. Group 1): 0.44 fold
Fold change BAK1, Group 3 vs. Group 1 (HT-1080 cells; Group 3 vs. Group 1): 1.74 fold
Fold change BAX, Group 3 vs. Group 1 (HT-1080 cells; Group 3 vs. Group 1): 3.97 fold
Fold change BCL2, Group 3 vs. Group 1 (HT-1080 cells; Group 3 vs. Group 1): 0.12 fold
Fold change BCL2A1, Group 3 vs. Group 1 (HT-1080 cells; Group 3 vs. Group 1): 2.09 fold
Fold change BCL2L13, Group 3 vs. Group 1 (HT-1080 cells; Group 3 vs. Group 1): 1.61 fold
Fold change BCLAF1, Group 3 vs. Group 1 (HT-1080 cells; Group 3 vs. Group 1): 0.41 fold
Fold change BFAR, Group 3 vs. Group 1 (HT-1080 cells; Group 3 vs. Group 1): 0.25 fold
Fold change BNIP3, Group 3 vs. Group 1 (HT-1080 cells; Group 3 vs. Group 1): 1.69 fold
Fold change CARD6, Group 3 vs. Group 1 (HT-1080 cells; Group 3 vs. Group 1): 3.62 fold
Fold change CARD11, Group 3 vs. Group 1 (HT-1080 cells; Group 3 vs. Group 1): 4.36 fold
Fold change CASP4, Group 3 vs. Group 1 (HT-1080 cells; Group 3 vs. Group 1): 2.28 fold
Fold change CASP9, Group 3 vs. Group 1 (HT-1080 cells; Group 3 vs. Group 1): 3.22 fold
Fold change CD40, Group 3 vs. Group 1 (HT-1080 cells; Group 3 vs. Group 1): 63.39 fold
Fold change CIDEB, Group 3 vs. Group 1 (HT-1080 cells; Group 3 vs. Group 1): 1.77 fold
Fold change GADD45A, Group 3 vs. Group 1 (HT-1080 cells; Group 3 vs. Group 1): 5.56 fold
Fold change LTA, Group 3 vs. Group 1 (HT-1080 cells; Group 3 vs. Group 1): 15.94 fold
Fold change LTBR, Group 3 vs. Group 1 (HT-1080 cells; Group 3 vs. Group 1): 1.88 fold
Fold change MCL1, Group 3 vs. Group 1 (HT-1080 cells; Group 3 vs. Group 1): 2.20 fold
Fold change TNFRSF1B, Group 3 vs. Group 1 (HT-1080 cells; Group 3 vs. Group 1): 2.10 fold
Fold change TNFRSF10B, Group 3 vs. Group 1 (HT-1080 cells; Group 3 vs. Group 1): 1.71 fold
Fold change TNFRSF25, Group 3 vs. Group 1 (HT-1080 cells; Group 3 vs. Group 1): 2.08 fold
Fold change TRADD, Group 3 vs. Group 1 (HT-1080 cells; Group 3 vs. Group 1): 2.07 fold
Fold change TRAF4, Group 3 vs. Group 1 (HT-1080 cells; Group 3 vs. Group 1): 4.05 fold
